Measured values reported in patent US20210292393A1.
Several values for one entry are separate records, joined by “and”; a condition that tells them apart may be missing. Identical values can stand only once.

Experiments:
Settings in all cases: remark: other sources report otherwise
[1] = target: SARS-CoV-2 full length spike protein, V367F mutant (SARS-CoV-2), P0DTC2
[2] = target: SARS-CoV-2 full length spike protein, V483A mutant (SARS-CoV-2), P0DTC2
[3] = target: SARS-CoV-2 full length spike protein, D614G mutant (SARS-CoV-2), P0DTC2
[4] = target: SARS-CoV-2 full length spike protein, D614G mutant, expressed on CHO cells (SARS-CoV-2), P0DTC2
[5] = target: SARS-CoV-2 full length spike protein, V483A mutant, expressed on CHO cells (SARS-CoV-2), P0DTC2
[6] = target: SARS-CoV-2 full length spike protein, V367F mutant, expressed on CHO cells (SARS-CoV-2), P0DTC2
[7] = target: SARS-CoV-2 full length spike protein, V483A mutant, expressed on the surface of CHO cells (SARS-CoV-2), P0DTC2

B1: antibody 269 (antibody, V domains shown)
VH: QLQLQESGPGLVKPSETLSLTCTVSGGSISSSSYYWGWIRQPPGKGLEWIGNIYYSGSTYYNPSLKSRVTISVDTSKNQFSLKLSSVTAADTAVYYCAGEELDIVATIYSSRYYYYGMDVWGQGTTVTVSS
VL: QSALTQPASVSGSPGQSITISCTGTSSDVGGYNYVSWYQQHPGKAPKLMIYEVSNRPSGVSNRFSGSKSGNTASLTISGLQAEDEADYYCSSYTSTSTLVFGGGTKLTVL
- median fluorescence intensity, fold over isotype control (fold over isotype) [1]: 25.4
- median fluorescence intensity, fold over isotype control (fold over isotype) [2]: 22.8 and 11.6

B2: antibody 279 (antibody, V domains shown)
VH: EVQLLESGGGLVQPGGSLRLSCAASGFTFSSYAMSWVRQAPGKGLEWVSTISGSGGNTYYADSVKGRFTISRDNSKNTLYLQMNSLRAEDTAVYYCAKDLFQGLYYGSGEFDYWGQGTLVTVSS
VL: QSALTQPASVSGSPGQSITISCTGTSSDVGAYNYVSWYQQHPGKAPKLMIYGVSNRPSGVSNRFSGSKSGNTASLTISGLQAEDEADYYCSSYTSSSTRVFGTGTKVTVL
- median fluorescence intensity, fold over isotype control (fold over isotype) [1]: 13.4
- median fluorescence intensity, fold over isotype control (fold over isotype) [2]: 11.8 and 8.2

B3: antibody 521 (antibody, V domains shown)
VH: QVQLVESGGGVVQPGRSLRLSCAASGFTFSSYGMHWVRQAPGKGLEWVAVIWYDGSNKYYADSVKGRFTISRDNSKNTLYLQMNSLRAEDTAVYYCAREGNDYGDYGEWELLGYFDYWGQGTLVTVSS
VL: SYELTQPPSVSVSPGQTARITCSGDALPKKYAYWYQQKSGQAPVLVIYEDSKRPSGIPERFSGSSSGTMATLTISGAQVEDEADYYCYSTDSSGNHRRVFGGGTKLTVL
- median fold over isotype (fold over isotype) [1]: 1.68
- median fold over isotype (fold over isotype) [3]: 2.68
- median fold over isotype (fold over isotype) [2]: 2.72 and 5.78

B4: antibody 499 (antibody, V domains shown)
VH: EVQLVESGGGLVKPGGSLRLSCAASGFTFSSYSMNWVRQAPGKGLEWVSSISSSSSYIYYADSVKGRFTISRDNAKNSLYLQMNSLRAEDTAVYYCARAPAGIVVGPDYWGQGTLVTVSS
VL: NFMLTQPHSVSESPGKTVTISCTGSSGSIASNYVQWYQQRPGSAPTTVIFEDNQRPSGVPDRFSGSIDSSSNSASLTISGLKTEDEADYYCQSYHSSNPHVVFGGGTKLTVL
- median fluorescence intensity, fold over isotype control (fold over isotype) [4]: 4.3
- median fluorescence intensity, fold over isotype control (fold over isotype) [5]: 4.39 and 2.6
- median fluorescence intensity, fold over isotype control (fold over isotype) [6]: 1.18

B5: antibody 315 (antibody, V domains shown)
VH: QVQLVQSGSELKKPGASVKLSCQASGYSFTNHAMNWVRQAPGQGLEWMGWINTNTGNPTYAQGFTGRFVFSLDTSVSTTYLHISSLKAEDTAVYYCARASARPGVATNLDFWGQGTLVVVSS
VL: DIQMTQSPSSLSASVGDRVTITCRASQNIDNYLNWYQQKPGKAPKLLIYAASRLHSGVPSRFSGSGSGTDFTLIISSLQPEDLATYYCQQSYSNPLTFGPGTKVDIR
- median fluorescence intensity, fold over isotype control (fold over isotype) [7]: 8.39

B6: antibody 325 (antibody, V domains shown)
VH: QVQLQESGPGLVKPSQTLSLTCTVSGGSISGGGYYWSWIRQHPGKGLEWIGYIYYSGSTYYNPSLQSRVTISVDTSKNQFSLKLSSVTAADTAVYYCARVGTSSVWYFDYWGQGTLVTVSS
VL: QSALTQPRSVSGSPGQSVTISCTGTSSDVGGYNYVSWYQQHPGKAPKLMIYDVTKRPSGVPDRFSGSKSGNTASLTISGLQAEDEADYYCSSYAGSWVFGGGTKLTVL
- median fluorescence intensity, fold over isotype control (fold over isotype) [7]: 1.17

B7: antibody 322 (antibody, V domains shown)
VH: EVQLVESGGGLVQPGGSLRLSCAASGFTFSSYWMSWVRQAPGKGLEWVANIKQDGSEKYYVDSVKGRFTISRDNAKNSLYLQMNSLRAEDTAVYYCARDEDVAAALDYWGQGTLVTVSS
VL: SYVLTQPPSVSVAPGKTARITCGGNNIGSKSVHWYQQKPGQAPVLVIYYDSDRPSGIPERFSGSNSGNTATLTISRVEAGDEADYYCQVWDSSSDHPERVFGGGTKLTVL
- median fluorescence intensity, fold over isotype control (fold over isotype) [7]: 4.95

B8: antibody 362 (antibody, V domains shown)
VH: QVQLVESGGGVVQPGRSLRLSCAASGFNLSNYAMHWVRQASGKGLEWVSLISYDGSVKYYTDSVKGRFTVSGDNSKNTLFLQMNSLRPDDSALYYCVRGGVSGPNSFDMWGQGTTVTVSS
VL: DVVMTQSPLSLPVTLGQPATISCRSSQSLVYSDGNTYVNWFQQRPGQSPRRLIYQVSIRASGVPDRFSGSGSGTDFALKISRVEAEDVGVYYCMQGTHWPVTFGQGTKVEIK
- median fluorescence intensity, fold over isotype control (fold over isotype) [7]: 10.3

B9: antibody 495 (antibody, V domains shown)
VH: QITLKESGPTLVKPTQTLTLTCTFSGFSLSTSGVGVGWIRQPPGKALEWLALIYWDDDKRYSPSLKSRLTITKDTSKNQVVLIMTNMDPVDTATYYCAHRDSSSWFDLDAFDIWGQGTMVIVSS
VL: QSVLTQPPSVSEAPRQRVTISCSGSSSNIGNNAVNWYQQLPGKAPKLLIYYDDLLPSGVSDRFSGSKSGTSASLAISGLQSEDEADYYCAAWDDRLNGPVFGGGTKLTVL
- median fluorescence intensity, fold over isotype control (fold over isotype) [4]: 1.43
- median fluorescence intensity, fold over isotype control (fold over isotype) [5]: 3.47 and 1.65
- median fluorescence intensity, fold over isotype control (fold over isotype) [6]: 3.82
